In paper PMC5062973 (Nucleic Acids Research, 2016):

T1: M. jannaschii Nop5 (amino acids 1-367) (M. jannaschii, UniProt Q58105 1-367)
T1 sequence (looked up): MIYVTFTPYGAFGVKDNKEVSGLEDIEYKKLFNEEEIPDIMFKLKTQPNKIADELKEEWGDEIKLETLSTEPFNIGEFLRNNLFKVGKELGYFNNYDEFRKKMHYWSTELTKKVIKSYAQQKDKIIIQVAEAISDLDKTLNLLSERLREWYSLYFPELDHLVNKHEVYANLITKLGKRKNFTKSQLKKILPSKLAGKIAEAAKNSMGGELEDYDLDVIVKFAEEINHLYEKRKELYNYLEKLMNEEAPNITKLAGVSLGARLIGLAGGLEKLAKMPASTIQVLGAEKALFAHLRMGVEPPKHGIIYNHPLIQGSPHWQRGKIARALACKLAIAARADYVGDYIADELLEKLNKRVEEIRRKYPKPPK


Biological target: T1, M. jannaschii Nop5 (amino acids 1-367)
Test: SEC

Row | binding result | Binder
1 | binds | M. jannaschii fibrillarin with a N-terminal FLAG-tag (enzyme, UniProt Q58108 1-230, looked up) MEDIKIKEIFENIYEVDLGDGLKRIATKSIVKGKKVYDEKIIKIGDEEYRIWNPNKSKLAAAIIKGLKVMPIKRDSKILYLGASAGTTPSHVADIADKGIVYAIEYAPRIMRELLDACAERENIIPILGDANKPQEYANIVEKVDVIYEDVAQPNQAEILIKNAKWFLKKGGYGMIAIKARSIDVTKDPKEIFKEQKEILEAGGFKIVDEVDIEPFEKDHVMFVGIWEGK
2 | binds | M. jannaschii L7Ae (natural protein) not shown
